Assay results published in patent US20160090402A1.

Assays:
hASCT1 receptor (human) = hASCT1 receptor (human) (UniProt P43007); assay: soluble Env injected into SCID mice grafted with XChASCT1 cells; cells recovered, anti-RGS-His immunofluorescence
[1] = biological target: hASCT2 receptor (human type 2 sodium-dependent neutral amino acid transporter) (human) (UniProt Q15758); assay: soluble Env injected into SCID mice grafted with XChASCT2 cells; cells recovered, anti-RGS-His immunofluorescence
hASCT2 receptor (human type 2 sodium-dependent neutral amino acid transporter) (human), sequence (Q15758 whole entry): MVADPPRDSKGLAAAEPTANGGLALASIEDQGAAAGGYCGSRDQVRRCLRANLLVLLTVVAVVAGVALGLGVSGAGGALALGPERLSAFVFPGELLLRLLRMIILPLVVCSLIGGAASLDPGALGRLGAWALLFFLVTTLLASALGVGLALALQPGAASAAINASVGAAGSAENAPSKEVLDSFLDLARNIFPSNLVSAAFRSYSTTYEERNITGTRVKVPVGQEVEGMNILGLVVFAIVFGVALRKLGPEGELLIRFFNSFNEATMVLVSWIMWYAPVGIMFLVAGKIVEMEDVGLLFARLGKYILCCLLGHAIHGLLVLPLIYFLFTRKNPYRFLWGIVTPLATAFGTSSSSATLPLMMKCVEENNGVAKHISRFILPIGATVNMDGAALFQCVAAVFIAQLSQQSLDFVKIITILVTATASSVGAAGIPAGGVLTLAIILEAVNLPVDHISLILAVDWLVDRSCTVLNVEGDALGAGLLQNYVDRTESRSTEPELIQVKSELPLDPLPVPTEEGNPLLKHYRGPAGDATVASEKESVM

hASCT1 receptor (human), sequence (P43007 whole entry): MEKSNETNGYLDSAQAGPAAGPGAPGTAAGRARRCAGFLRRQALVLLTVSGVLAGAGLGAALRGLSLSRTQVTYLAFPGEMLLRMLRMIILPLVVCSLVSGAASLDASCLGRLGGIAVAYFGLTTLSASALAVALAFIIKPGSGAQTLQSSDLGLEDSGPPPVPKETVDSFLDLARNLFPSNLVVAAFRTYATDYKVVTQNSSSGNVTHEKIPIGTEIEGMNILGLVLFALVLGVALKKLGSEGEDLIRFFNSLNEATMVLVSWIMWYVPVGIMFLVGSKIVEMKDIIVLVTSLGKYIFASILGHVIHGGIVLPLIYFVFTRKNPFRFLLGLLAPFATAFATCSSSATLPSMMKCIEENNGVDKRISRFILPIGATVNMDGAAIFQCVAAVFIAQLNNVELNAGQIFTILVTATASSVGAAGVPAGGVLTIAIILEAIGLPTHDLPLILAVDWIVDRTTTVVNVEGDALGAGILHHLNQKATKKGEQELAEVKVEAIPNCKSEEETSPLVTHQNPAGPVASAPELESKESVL

soluble protein of plasmid 460 (envelope-spacer-His6) (from UniProt Q9UQF0 21-435) (ligand)
NF/NT, Mean (fluorescent cells of 77 cells) (hASCT1 receptor (human)): 24
NF/NT, Mean (fluorescent cells of 57 cells) [1]: 23
